Drawing on publication PMC4221783, this text covers association in co-IP, percent of WT for one substance.

The target of assay [1] is Vangl2 lacking the PDZ-binding motif at the C-terminal end. Briefly: co-IP.
The target in assay [2] is Vangl2 lacking the Prickle-binding domain (UniProt Q91ZD4). Briefly: co-IP.
Sequence of Vangl2 lacking the Prickle-binding domain (Q91ZD4 whole entry, the tested form may be a part): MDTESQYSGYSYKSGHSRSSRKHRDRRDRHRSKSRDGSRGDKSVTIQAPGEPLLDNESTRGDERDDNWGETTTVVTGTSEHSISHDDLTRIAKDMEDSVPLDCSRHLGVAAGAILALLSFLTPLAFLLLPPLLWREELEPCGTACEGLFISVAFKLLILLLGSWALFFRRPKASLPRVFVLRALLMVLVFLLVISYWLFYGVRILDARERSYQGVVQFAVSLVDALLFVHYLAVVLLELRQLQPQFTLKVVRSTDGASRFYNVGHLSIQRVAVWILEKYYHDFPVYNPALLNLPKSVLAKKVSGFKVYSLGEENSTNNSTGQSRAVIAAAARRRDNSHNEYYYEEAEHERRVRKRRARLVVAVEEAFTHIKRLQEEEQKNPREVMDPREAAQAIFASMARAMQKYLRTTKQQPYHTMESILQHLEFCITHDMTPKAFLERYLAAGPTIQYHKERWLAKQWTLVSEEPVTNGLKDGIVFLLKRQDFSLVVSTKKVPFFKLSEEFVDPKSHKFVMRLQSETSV

Sequence of Vangl2 lacking the PDZ-binding motif at the C-terminal end (P84889 whole entry, the tested form may be a part): as the sequence (Q91ZD4 whole entry, the tested form may be a part) above

Take “E-cadherin (from UniProt P09803 157-884) (natural protein)”: the association in co-IP, percent of WT turned out to be 87.1% in assay [1] and 28.4% in assay [2].
